In PMC3043095:

Key:
[1] = biological target: leafhopper actin (Circulifer haematoceps, Ciha-1 cells) (Circulifer haematoceps (endogenous in Ciha-1))
[2] = biological target: leafhopper actin (Circulifer haematoceps, Ciha-1 cells) (Circulifer haematoceps (endogenous in Ciha-1)); remark: listed apart in the source

## His6-tagged PGK-FL4 (S. citri PGK amino acids 101 to 412) (from UniProt Q7WTU1 101-412) (domain or fragment)
[1]
  S. citri transmission by infected leafhoppers injected with 0.2 µg PGK-FL4: relative percentage of batches with positive culture (phosphate buffer = 100) (% relative to phosphate buffer control): 101

## His6-tagged PGK-FL5 (S. citri PGK amino acids 49 to 154) (from UniProt Q7WTU1 49-154) (domain or fragment)
[1]
  S. citri transmission by infected leafhoppers injected with 0.2 µg PGK-FL5: relative percentage of batches with positive culture (phosphate buffer = 100) (% relative to phosphate buffer control): 58.6
[2]
  reduction of S. citri internalization into Ciha-1 cells (gentamicin protection assay) after preincubation of cells with 50 and 400 µg/ml PGK-FL5 (45% and 80%) (% reduction of internalization): 80

## Spiroplasma citri phosphoglycerate kinase, His6-tagged, full length (from UniProt Q7WTU1 1-412) (enzyme)
[1]
  S. citri transmission by infected leafhoppers injected with 0.2 µg His6-tagged PGK: relative percentage of batches with positive culture (phosphate buffer = 100) (% relative to phosphate buffer control): 51.7
[2]
  inhibition of S. citri internalization into Ciha-1 cells (gentamicin protection assay) after preincubation of cells with 400 µg/ml His6-tagged PGK (% inhibition of invasion): 85
